{"source": "paper PMC4273445", "about": "(eLife, 2014)", "test_in_all_cases": "SPR", "key": {"[1]": {"target": "fHbp V2.21 Glu (at V1 Glu283) to Ala (N. meningitidis)"}, "[2]": {"target": "fHbp V2.21 Phe (at V1 Phe194) to Ala (N. meningitidis)"}, "[3]": {"target": "fHbp 2.P25 (N. meningitidis) (UniProt E6MV22)"}, "[4]": {"target": "fHbp V1.1 Lys191 to Ala (N. meningitidis)"}, "[5]": {"target": "fHbp V1.1 Glu183 to Ala (N. meningitidis)"}, "[6]": {"target": "fHbp V3.28 Thr (at V1 Ser286) to Ala (N. meningitidis)"}, "[7]": {"target": "fHbp V2.21 His (at V1 His248) to Ala (N. meningitidis)"}, "[8]": {"target": "fHbp V1.1 Ser288 to Ala (N. meningitidis)"}, "[9]": {"target": "fHbp V1.1 Asp150 to Ala (N. meningitidis)"}, "[10]": {"target": "fHbp 1.P276 (N. meningitidis) (UniProt E6MV22)"}, "[11]": {"target": "fHbp V2.21 Leu (at V1 Leu156) to Ala (N. meningitidis)"}, "[12]": {"target": "fHbp 3.P45 (N. meningitidis) (UniProt E6MV22)"}, "[13]": {"target": "fHbp V1.1 Asp181 to Ala (N. meningitidis)"}, "[14]": {"target": "fHbp V2.21 His (at V1 His203) to Ala (N. meningitidis)"}, "[15]": {"target": "fHbp V2.21 Phe (at V1 Phe292) to Ala (N. meningitidis)"}, "[16]": {"target": "fHbp V1.1 Pro265 to Ala (N. meningitidis)"}, "[17]": {"target": "fHbp V1.1 Ile154 to Ala (N. meningitidis)"}, "[18]": {"target": "fHbp V3.28 Ser (at V1 Ser302) to Ala (N. meningitidis)"}, "[19]": {"target": "fHbp 1.P4 (N. meningitidis) (UniProt E6MV22)"}, "[20]": {"target": "fHbp V2.21 Ile (at V1 Ser185) to Ala (N. meningitidis)"}, "[21]": {"target": "fHbp V1.1 Lys268 to Ala (N. meningitidis)"}, "[22]": {"target": "fHbp V1.1 Ser286 to Ala (N. meningitidis)"}, "[23]": {"target": "fHbp V3.28 Phe (at V1 Phe194) to Ala (N. meningitidis)"}, "[24]": {"target": "fHbp V3.28 Glu (at V1 Glu283) to Ala (N. meningitidis)"}, "[25]": {"target": "fHbp V3.28 Lys (at V1 Lys268) to Ala (N. meningitidis)"}, "[26]": {"target": "fHbp V1.1 Gln193 to Ala (N. meningitidis)"}, "[27]": {"target": "fHbp V3.28 Lys (at V1 His184) to Ala (N. meningitidis)"}, "[28]": {"target": "fHbp V3.28 Asp (at V1 Asp150) to Ala (N. meningitidis)"}, "[29]": {"target": "fHbp V2.21 Lys (at V1 Lys107) to Ala (N. meningitidis)"}, "[30]": {"target": "fHbp V3.28 Thr (at V1 Ser185) to Ala (N. meningitidis)"}, "[31]": {"target": "fHbp 1.P5 (N. meningitidis) (UniProt E6MV22)"}, "[32]": {"target": "factor H binding protein (fHbp) V2.21 (N. meningitidis) (UniProt E6MV22)"}, "[33]": {"target": "fHbp 3.P30 (N. meningitidis) (UniProt E6MV22)"}, "[34]": {"target": "fHbp V2.21 Asp (at V1 Asp150) to Ala (N. meningitidis)"}, "[35]": {"target": "fHbp V1.1 His184 to Ala (N. meningitidis)"}, "[36]": {"target": "fHbp V2.21 Ile (at V1 Ile154) to Ala (N. meningitidis)"}, "[37]": {"target": "fHbp V2.21 Asn (at V1 Gln180) to Ala (N. meningitidis)"}, "[38]": {"target": "fHbp V2.21 Glu (at V1 Glu157) to Ala (N. meningitidis)"}, "[39]": {"target": "fHbp V2.21 Ser (at V1 Ser104) to Ala (N. meningitidis)"}, "[40]": {"target": "fHbp V3.28 Leu (at V1 Leu289) to Ala (N. meningitidis)"}, "[41]": {"target": "fHbp V2.21 Val (at V1 Val149) to Ala (N. meningitidis)"}, "[42]": {"target": "fHbp 1.P292 (N. meningitidis) (UniProt E6MV22)"}, "[43]": {"target": "fHbp V2.21 Lys (at V1 Lys268) to Ala (N. meningitidis)"}, "[44]": {"target": "fHbp V1.1 Ile196 to Ala (N. meningitidis)"}, "[45]": {"target": "fHbp V2.21 Val (at V1 Ile196) to Ala (N. meningitidis)"}, "[46]": {"target": "fHbp V1.1 Gln103 to Ala (N. meningitidis)"}, "[47]": {"target": "fHbp V1.1 Phe292 to Ala (N. meningitidis)"}, "[48]": {"target": "fHbp V1.1 Glu157 to Ala (N. meningitidis)"}}, "data": [{"substance": "CFHR3_(12), the first two (N-terminal) CCP domains of complement factor H-related 3 (from UniProt Q02985 19-330) (domain or fragment)", "values": [{"measurement": "Kd", "setting": "[1]", "value": 22.6, "unit": "nM"}, {"measurement": "Kd", "setting": "[2]", "value": 1.08, "unit": "nM"}, {"measurement": "Kd", "setting": "[3]", "value": 1.61, "unit": "nM"}, {"measurement": "Kd", "setting": "[4]", "value": 91, "unit": "nM"}, {"measurement": "Kd", "setting": "[5]", "value": 81, "unit": "nM"}, {"measurement": "Kd", "setting": "[6]", "value": 33.1, "unit": "nM"}, {"measurement": "Kd", "setting": "[7]", "value": 3.56, "unit": "nM"}, {"measurement": "Kd", "setting": "[8]", "value": 57.5, "unit": "nM"}, {"measurement": "Kd", "setting": "[9]", "value": 118, "unit": "nM"}, {"measurement": "Kd", "setting": "[10]", "value": 37.9, "unit": "nM"}, {"measurement": "Kd", "setting": "[11]", "value": 7.54, "unit": "nM"}, {"measurement": "Kd", "setting": "[12]", "value": 0.779, "unit": "nM"}, {"measurement": "Kd", "setting": "[13]", "value": 52.5, "unit": "nM"}, {"measurement": "Kd", "setting": "[14]", "value": 3.81, "unit": "nM"}, {"measurement": "Kd", "setting": "[15]", "value": 19.4, "unit": "nM"}, {"measurement": "Kd", "setting": "[16]", "value": 130, "unit": "nM"}, {"measurement": "Kd", "setting": "[17]", "value": 147, "unit": "nM"}, {"measurement": "Kd", "setting": "[18]", "value": 7.64, "unit": "nM"}, {"measurement": "Kd", "setting": "[19]", "value": 75, "unit": "nM"}, {"measurement": "Kd", "setting": "[20]", "value": 6.48, "unit": "nM"}, {"measurement": "Kd", "setting": "[21]", "value": 43, "unit": "nM"}, {"measurement": "Kd", "setting": "[22]", "value": 93.6, "unit": "nM"}, {"measurement": "Kd", "setting": "[23]", "value": 5.15, "unit": "nM"}, {"measurement": "Kd", "setting": "[24]", "value": 20.6, "unit": "nM"}, {"measurement": "Kd", "setting": "[25]", "value": 3.2, "unit": "nM"}, {"measurement": "Kd", "setting": "[26]", "value": 158, "unit": "nM"}, {"measurement": "Kd", "setting": "[27]", "value": 3.05, "unit": "nM"}, {"measurement": "Kd", "setting": "[28]", "value": 3.77, "unit": "nM"}, {"measurement": "Kd", "setting": "[29]", "value": 4.47, "unit": "nM"}, {"measurement": "Kd", "setting": "[30]", "value": 3.76, "unit": "nM"}, {"measurement": "Kd", "setting": "[31]", "value": 55.2, "unit": "nM"}, {"measurement": "Kd", "setting": "[32]", "value": 3.73, "unit": "nM"}, {"measurement": "Kd", "setting": "[33]", "value": 2.93, "unit": "nM"}, {"measurement": "Kd", "setting": "[34]", "value": 3.64, "unit": "nM"}, {"measurement": "Kd", "setting": "[35]", "value": 118, "unit": "nM"}, {"measurement": "Kd", "setting": "[36]", "value": 14.8, "unit": "nM"}, {"measurement": "Kd", "setting": "[37]", "value": 5.87, "unit": "nM"}, {"measurement": "Kd", "setting": "[38]", "value": 2.74, "unit": "nM"}, {"measurement": "Kd", "setting": "[39]", "value": 4.91, "unit": "nM"}, {"measurement": "Kd", "setting": "[40]", "value": 1.18, "unit": "nM"}, {"measurement": "Kd", "setting": "[41]", "value": 5.82, "unit": "nM"}, {"measurement": "Kd", "setting": "[42]", "value": 31.4, "unit": "nM"}, {"measurement": "Kd", "setting": "[43]", "value": 3.25, "unit": "nM"}, {"measurement": "Kd", "setting": "[44]", "value": 35.2, "unit": "nM"}]}, {"substance": "CFH67, CCP domains 6 and 7 of complement factor H (from UniProt P08603 321-443) (domain or fragment)", "values": [{"measurement": "Kd", "setting": "[1]", "value": 197, "unit": "nM"}, {"measurement": "Kd", "setting": "[3]", "value": 0.346, "unit": "nM"}, {"measurement": "Kd", "setting": "[4]", "value": 6.4, "unit": "nM"}, {"measurement": "Kd", "setting": "[5]", "value": 7.02, "unit": "nM"}, {"measurement": "Kd", "setting": "[7]", "value": 1.92, "unit": "nM"}, {"measurement": "Kd", "setting": "[8]", "value": 2.87, "unit": "nM"}, {"measurement": "Kd", "setting": "[9]", "value": 6.11, "unit": "nM"}, {"measurement": "Kd", "setting": "[45]", "value": 40, "unit": "nM"}, {"measurement": "Kd", "setting": "[10]", "value": 8.9, "unit": "nM"}, {"measurement": "Kd", "setting": "[11]", "value": 4.7, "unit": "nM"}, {"measurement": "Kd", "setting": "[12]", "value": 0.227, "unit": "nM"}, {"measurement": "Kd", "setting": "[13]", "value": 4.14, "unit": "nM"}, {"measurement": "Kd", "setting": "[16]", "value": 3.62, "unit": "nM"}, {"measurement": "Kd", "setting": "[17]", "value": 7.69, "unit": "nM"}, {"measurement": "Kd", "setting": "[18]", "value": 6.18, "unit": "nM"}, {"measurement": "Kd", "setting": "[19]", "value": 3.94, "unit": "nM"}, {"measurement": "Kd", "setting": "[20]", "value": 13.3, "unit": "nM"}, {"measurement": "Kd", "setting": "[21]", "value": 3.53, "unit": "nM"}, {"measurement": "Kd", "setting": "[22]", "value": 11.3, "unit": "nM"}, {"measurement": "Kd", "setting": "[23]", "value": 4.25, "unit": "nM"}, {"measurement": "Kd", "setting": "[24]", "value": 11.9, "unit": "nM"}, {"measurement": "Kd", "setting": "[25]", "value": 2.61, "unit": "nM"}, {"measurement": "Kd", "setting": "[26]", "value": 6.66, "unit": "nM"}, {"measurement": "Kd", "setting": "[27]", "value": 2.76, "unit": "nM"}, {"measurement": "Kd", "setting": "[28]", "value": 4.4, "unit": "nM"}, {"measurement": "Kd", "setting": "[29]", "value": 3.06, "unit": "nM"}, {"measurement": "Kd", "setting": "[30]", "value": 4.42, "unit": "nM"}, {"measurement": "Kd", "setting": "[46]", "value": 7.03, "unit": "nM"}, {"measurement": "Kd", "setting": "[31]", "value": 4.8, "unit": "nM"}, {"measurement": "Kd", "setting": "[32]", "value": 1.87, "unit": "nM"}, {"measurement": "Kd", "setting": "[47]", "value": 6.8, "unit": "nM"}, {"measurement": "Kd", "setting": "[33]", "value": 1.97, "unit": "nM"}, {"measurement": "Kd", "setting": "[34]", "value": 3.24, "unit": "nM"}, {"measurement": "Kd", "setting": "[35]", "value": 9.27, "unit": "nM"}, {"measurement": "Kd", "setting": "[36]", "value": 25.8, "unit": "nM"}, {"measurement": "Kd", "setting": "[37]", "value": 6.21, "unit": "nM"}, {"measurement": "Kd", "setting": "[38]", "value": 0.401, "unit": "nM"}, {"measurement": "Kd", "setting": "[39]", "value": 2.52, "unit": "nM"}, {"measurement": "Kd", "setting": "[40]", "value": 1.29, "unit": "nM"}, {"measurement": "Kd", "setting": "[41]", "value": 6.9, "unit": "nM"}, {"measurement": "Kd", "setting": "[42]", "value": 7.74, "unit": "nM"}, {"measurement": "Kd", "setting": "[48]", "value": 20.7, "unit": "nM"}, {"measurement": "Kd", "setting": "[43]", "value": 3.28, "unit": "nM"}, {"measurement": "Kd", "setting": "[44]", "value": 1.07, "unit": "nM"}]}]}
